# Measurements published in the DeepSol protein solubility set.
# Test: soluble on expression in E. coli; label from the status in PepcDB or PDB records
row,Sequence,soluble on expression in E. coli
1,MEINVQSDVGRKRNTNQDYANVFENQQHITFAVLADGMGGHQAGDVASQMAVNNLGESWSNASVDSAEKSAQWLIQAIQKENEKIYERGQSKPEYLGMGTTVVGAILLPDSFVLANVGDSRAYLVRDQHMLQLTEDHSLVNELVKSGEITREMAANHPRKNVLTRSLGMPGTVEVDVTNHEWLPNDYLLLCSDGLTNMVPETKILEILETSDPLESKLSQLVAQANEAGGLDNITVLVIHFDEQKEENQ,not soluble
2,GSKKKVKELKVLDSKTAQNLSIFLGSFRMPYQEIKNVILEVNEAVLTESMIQNLIKQMPEPEQLKMLSELKEEYDDLAESEQFGVVMGTVPRLRPRLNAILFKLQFSEQVENIKPEIVSVTAACEELRKSENFSSLLELTLLVGNYMNAGSRNAGAFGFNISFLCKLRDTKSADQKMTLLHFLAELCENDHPEVLKFPDELAHVEKASRVSAENLQKSLDQMKKQIADVERDVQNFPAATDEKDKFVEKMTSFVKDAQEQYNKLRMMHSNMETLYKELGDYFVFDPKKLSVEEFFMDLHNFRNMFLQAVKENQKRRETEEKMRRAKLAKEKAEKERLEKQ,soluble
3,MGSDKIHHHHHHMINYMIPKGFLCCGKHVGIKKRKLDLGVVYSEKLCSAAAVFTKNKFCGIPIIVGKENIKDNKLQSIVVTSGVANVATGEEGLKNTYRILNKLSCELNIKSENILPSSTGIIGKQLPIDCIITGINGIKSSLSKYNWEEFNRAIMTTDKELKIKSCKIGDATVLGIAKGSGMIEPNMATMLAYFFTDASIKAVELKGILKRAVDKSFNMISIDHDTSTSDTAAILANGYVGNVNLEVFEKTFTDMCIDMAKDIVRDGEGVSKLIEATVMGCSSFESAKVIAKSIINSPLVKIAIYGSDPNWGRIAMAIGKSFEDDVDPLKIEIAFNSNVIYDKGKIYEENFDCIERYLRDNNECKIQANLNVGDFAATVWGSDFTEDYIRINSYYTKRK,not soluble
4,YLGGDLKYYGHTIKKANVQAIINYAVQYNILPSGIITQLYLESFWGDSTVGKRDNNWAGMSGGAQTRPSGVKVTTGMARPANEGGTYMHYASVDDFLKDYTYLLAKQGIYNVVGKKNIADYTKGLFRAGGAKYDYAAAGY,not soluble
5,MSAPRLPVTVLTGFLGAGKTTLLSKLLENNKQRRLAILVNEFGEVSIDGGLLRDGENQGVEIHDLANGLVAYDDDADFLPTMLALWQRRQQIDHVLIETSGLALPSAVMAQLQSEALAPYFVLDATLAVVDTPLLLAGHFAPAGDGGKTDAVAALFDQQLGHADIVVLNKIDALSADQLLAAEEAVRKQAPSIRFIELAYEAKLDTRLTLGLHLHEASPAAHRHYGPVASMPGLAMRPLANQTLLDGHSHGGQAAHSHGLATHKHFHEQDPGWQSFMIRSKEPQCADKLAAALQAIAREEPLLRIKGFAACADSPGRLLAQGVRSRIELSRDDTLAAPRQAQLVFIGYHPSRPRVVALLRDITGAHWSLEHHHHHH,not soluble
6,MSLKIRDPYIDERTNMVVIRESPDVVRLAERLVELQDRNDSEVVLEVEVLEVSSTKLTQLGVQYPNSFTLTPLSATGASSLTLSDFKGLNSDRIGVSTPNVVLNLRRELGDTDLLANPKIRAKNHEKAKILIGDKLPVITTTSTSTGFVSESVQYIDVGLKLEVEPSISPDDEVSMKINLEVSSLTNQITTRSGTVAYQIGTRTANTVLKLHDGETQLLAGLIKTQQTSSAARIPGLGDIPLLGRLFSSQTDNGVRNEIVLSITPRVVKPSHRPDTNEGHHHHHH,soluble
7,STTGIIMENVTAFWEEGFGELLEKVQQSNGDRKHSSDENNVSFSHLCLVGNPVLKNINLNIEKGEMLAITGSTGSGKTSLLMLILGELEASEGIIKHSGRVSFCSQFSWIMPGTIKENIIFGVSYDEYRYKSVVKACQLQQDITKFAEQDNTVLGEGGVTLSGGQRARISLARAVYKDADLYLLDSPFGYLDVFTEEQVFESCVCKLMANKTRILVTSKMEHLRKADKILILHQGSSYFYGTFSELQSLRPDFSSKLMGYDTFDQFTEERRSSILTETLRRFSVDDSSAPWSKPKQSFRQTGEVGEKRKNSILNSFSSVRKISIVQKTPLCIDGESDDLQEKRLSLVPDSEQGEAALPRSNMIATGPTFPGRRRQSVLDLMTFTPNSGSSNLQRTRTSIRKISLVPQISLNEVDVYSRRLSQDSTLNITEEINEEDLKECFLDDVIKIPPVTTWNTYLRYFTLHKG,soluble
8,MSLRSAKHHFGAATSRGTRPSNEDTYQAGVIDIPAFAKRPPASLTIRNRSARVAGLRENRGADSASGDPQVFYFGIFDGHGGSECSTFMKETLHEYIQDTAAEFELQSSLRKAGENSASPDAESELPIRQGSNVARVQRLEKSLVQSWRNLVGGYFRRFVPPNFSHLAKHTAEESSSVPENNKGVTIEEILEYAFLRADLDFVSAQASREDDELSNVCRPLYQDDILYGPSRSQSLNIAGLRRFKGGSTASTVMISTPTPAPFWHPASPSSLLVSHVGDTRMLLCSTVTGEAIPLTSNHHPSSPIEANRLRRYAATFVTDSFGEERISGLANTRAFGDVQSKRIGVSAEPELRRFEIAPAEYSFLVLMSDGISEALTDQEVVDIIKEAKTPDEGARHVVNFATEVTRTGDNATCLVVRLGGWEREGHHHHHH,not soluble
9,MNTPSRTHLVIIPSYNPGPKVYETVQAARRYWNPVWVVVDGSTDGTWEGLLKLSAEDSGLVVLGMPANRGKGAAVLRGLLTSRRKGFTHALVMDSDGQHPADRIPEFMARSQEEPDAMILGVPVFDDSAPSLRVKGRRISNWWANLETLWCGIGDSLFGFGVYPIQALCVIMQDHQWMRRFDFDPEAAVRLCWAGIRPVNLPVPVYYPKPEEGGTSHFHYWRDNALLTWMHVRLMFGFLARLPILLARIVRRPEILEHHHHHH,not soluble
10,MGSDKIHHHHHHMALRSMDELRQQAQGALSLNIAFIGVVNGLFSTLHALGNADSAALAAATGMDTGYVLRWCDAAYAFGWLELTDNEQWRLSEDGDRMRPEAENSRVGVAVGAVLSAHMAERAAGLMRTGERPGEKVLAERETILPWFGLMLENNFRKTFEEKICPTVPIFAEVDARGGLAVDLGCGNGWYLRALAARCGHLHGLGLDGFAENIRQATEKAQSEGIADRLHFDEGDIHQFSLPEPADLIAMNRSLHHVWENRGEIFQRLHASLKPEGAIVIWEPAWPDDHRVLREPPLRGMAFQNLTEHVQGNHFLHPEEIATALSEAGLHPEIFPFGSDVVVVGRV,not soluble
11,MGSDKIHHHHHHENLYFQGMSKVFVNISLSLDGFMAPEGMDMAHFSDPTYKNWGAKWGALMAWALSQQYLREKLKLGTGGETGPVNDMVRHTFERTGAHIMGKRMFEGGERGWPEEAPFHTPVYVLTHERRNPWVRPGGTTFYFVNDGPEQALALAREAAGERDIRISGGANVIQQYLNLGLVDELEIALIPVIFGGGRRLFENLHEPLPQFRIDRVLASPTATHLRYVRL,soluble
12,VRKCLSDTDCTNGEKCVQKNKICSTIVEIQRCEKEHFTIPCKSNNDCQVWAHEKICNKGCCWDLL,soluble
13,MSLPRITALRTIRLPERPKLIWVEVETEDGLTGLGETFRGAQAVEAVLHEQTAPAIIGRAAENITSISSELLNPYVGFGSSSAEVRAASAVDIALWDLAGQRAGVPLHVALGGAARDRVPVYATCAGYDFNTSLGGRRSIGSAELSTGPYDDQVAFMRDAGVLAESLVAEGYAAMKIWPFDDFASITPHHISLTDLKDGLEPFRKIRAAVGQRIEIMCELHSLWGTHAAARICNALADYGVLWVEDPIAKMDNIPAVADLRRQTRAPICGGENLAGTRRFHEMLCADAIDFVMLDLTWCGGLSEGRKIAALAETHARPLAPHDCTGPVALMAGLHLALHAPTAIFQEVVRASLATWYADLVDHLPVIQEGIALAPTRPGLGTALLPHVRKIAGAVVRESGKPREGHHHHHH,soluble
14,MSLNTQLAIIRSKGKEHICYREEECFVDVSYPMVTFTKGEDDFEIVKCDHPSMEETFLYQESRLSIVIEMYHNGWPALSLKDPVTHEIYTVLTVNLEDKAAFSLPDRAFVDINNNPDAMEFLLSNKLAEDTGYRRQSGWVSYPMVTLNLPTFYRLDPHAFSAILNIREGHHHHHH,soluble
15,MKLIFQMGKQPVLEKTILLFILSIVESLKLKVVSLDEAHRYIFNLEVLELLMDRNIDDQVLELIHFGMGLEDIYHVLPEELEHTIEELKWLCIQVLSEYSMHEESEQLIEDIR,not soluble
16,MSKIDFHTHYLPTSYVEALKRHVPGDPDGWPTPEWTPQLTLNFMRDNDISYSILSLSSPHVNFGDKAETIRLVEAANDDGKSLAQQYPDQLGYLASLPIPYELDAVKTVQQALDQDGALGVTVPTNSRGLYFGSPVLERVYQELDARQAIVALHPNEPAILPKNVDIDLPVPLLGFFMDTTMTFINMLKYHFFEKYPNIKVIIPHAGAFLGIVDDRIAQYAQKVYQVDVYDVMHHVYFDVAGAVLPRQLPTLMSLAQPEHLLYGSDIPYTPLDGSRQLGHALATTDLLTNEQKQAIFYDNAHRLLTELEHHHHHH,soluble
17,MGSDKIHHHHHHMLAENLKSLYLDEWNRYVGHEFVRRMEHGDLPLENFKFYLVQDSLYVEEMLRAVMRSTELMPNDMAIRILSSVVLGRDKGMETHAFLEKELGVEKSSRMTMTTYSYTRHLRYSSTIGWPQFLAAWIPCMWGYSEIGKTVLNSPNRYYRTWAEFYASKEYADRVSVILEAMDRFNGDITEIKDYFLISLKFEQMFWQAAFDMEKPI,not soluble
18,MRRSAAPSQLQGNSFKKPKFIPPGRSNPGLNEEITKLNPDIKLFEGVAINNTFLPSQNDLRICSLNLPSEESTREINNRDNCSGKYCFEAPTLATLDPPHTVHSAPKEVAVSKEQEEKSDSLVKYFSVVWCKPSKKKHKKWEGDAVLIVKGKSFILKNLEGKDIGRGIGYKFKELEKIEEGQTLMICGKEIEVMGVISPDDFSSGRCFQLGGGSTAISHSSQVARKCFSNPFKSVCKPSSKENRQNDFQNCKPRHDPYTPNSLVMPRPDKNHQWVFNKNCFPLVDVVIDPYLVYHLRPHQKEGIIFLYECVMGMRMNGRCGAILADEMGLGKTLQCISLIWTLQCQGPYGGKPVIKKTLIVTPGSLVNNWKKEFQKWLGSERIKIFTVDQDHKVEEFIKSIFYSVLIISYEMLLRSLDQIKNIKFDLLICDEGHRLKNSAIKTTTALISLSCEKRIILTGTPIQNDLQEFFALIDFVNPGILGSLSSYRKIYEEPIILSREPSASEEEKELGERRAAELTCLTGLFILRRTQEIINKYLPPKIENVVFCRPGALQIELYRKLLNSQVVRFCLQGLLENSPHLICIGALKKLCNHPCLLFNSIKEKECSSTCDKNEEKSLYKGLLSVFPADYNPLLFTEKESGKLQVLSKLLAVIHELRPTEKVVLVSNYTQTLNILQEVCKRHGYAYTRLDGQTPISQRQQIVDGFNSQHSSFFIFLLSSKAGGVGLNLIGGSHLILYDIDWNPATDIQAMSRVWRDGQKYPVHIYRLLTTGTIEEKIYQRQISKQGLCGAVVDLTKTSEHIQFSVEELKNLFTLHESSDCVTHDLLDCECTGEEVHTGDSLEKFIVSRDCQLGPHHQKSNSLKPLSMSQLKQWKHFSGDHLNLTDPFLERITENVSFIFQNITTQATGT,soluble
19,EVQLVESGGDLVKPGGSLKLSCAASGFTFSSYGMSWIRQTPDKRLEWVATISSGGSYTYYPDSVKGRFTISRDNAKNTLYLQMSSLKSEDTAMFYCARQTTMTYFAYWGQGTLVTVSAAKTTPPSVYPLAPGSAAQTNSMVTLGCLVKGYFPEPVTVTWNSGSLSSGVHTFPAVLQSDLYTLSSSVTVPSSPRPSETVTCNVAHPASSTKVDKKIEPA,soluble
20,SRMNPTIMVPGSEATQERFNETLASLNKQGKKHSILKLTVHKDNSISYSGQIAASDNRPYIVVAFADNKDSYTTIKKQAKWLDHALDELQKKYHFKNFNAIGHSNGGLDWTVYLENYYAKENFHLNTLMTIGTPYNFEVVNSSNHTQMLQDLIAAKDALPDDLTVYNVAGTNSYDGDYIVPITSVETGKYIFQKTIKQYTQITVTGNEAEHSDLPTNKEVLDLISENILNNNRKKVDPKNQN,not soluble
